Consider 2 molecules from paper PMC5385928 (Nature structural & molecular biology, 2016).

For assay [1], the target named is DNA damage-binding protein 1 (DDB1), full length human (human, UniProt Q16531 1-1140). Description: crystal structure.
In assay [2] the target is Uracil-DNA glycosylase UNG2, catalytic domain (residues 83-304) (human, UniProt P13051-2 83-304). Briefly: crystal structure.
Chain of Uracil-DNA glycosylase UNG2, catalytic domain (residues 83-304) (P13051 92-313): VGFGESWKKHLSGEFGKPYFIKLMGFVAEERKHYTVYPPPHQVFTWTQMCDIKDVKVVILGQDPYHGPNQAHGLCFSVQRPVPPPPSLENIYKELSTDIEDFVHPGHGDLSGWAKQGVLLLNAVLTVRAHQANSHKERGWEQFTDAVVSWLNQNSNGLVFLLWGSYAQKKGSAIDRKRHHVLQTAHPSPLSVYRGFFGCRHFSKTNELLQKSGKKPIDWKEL

Chain of DNA damage-binding protein 1 (DDB1), full length human (Q16531 whole entry, the tested form may be a part): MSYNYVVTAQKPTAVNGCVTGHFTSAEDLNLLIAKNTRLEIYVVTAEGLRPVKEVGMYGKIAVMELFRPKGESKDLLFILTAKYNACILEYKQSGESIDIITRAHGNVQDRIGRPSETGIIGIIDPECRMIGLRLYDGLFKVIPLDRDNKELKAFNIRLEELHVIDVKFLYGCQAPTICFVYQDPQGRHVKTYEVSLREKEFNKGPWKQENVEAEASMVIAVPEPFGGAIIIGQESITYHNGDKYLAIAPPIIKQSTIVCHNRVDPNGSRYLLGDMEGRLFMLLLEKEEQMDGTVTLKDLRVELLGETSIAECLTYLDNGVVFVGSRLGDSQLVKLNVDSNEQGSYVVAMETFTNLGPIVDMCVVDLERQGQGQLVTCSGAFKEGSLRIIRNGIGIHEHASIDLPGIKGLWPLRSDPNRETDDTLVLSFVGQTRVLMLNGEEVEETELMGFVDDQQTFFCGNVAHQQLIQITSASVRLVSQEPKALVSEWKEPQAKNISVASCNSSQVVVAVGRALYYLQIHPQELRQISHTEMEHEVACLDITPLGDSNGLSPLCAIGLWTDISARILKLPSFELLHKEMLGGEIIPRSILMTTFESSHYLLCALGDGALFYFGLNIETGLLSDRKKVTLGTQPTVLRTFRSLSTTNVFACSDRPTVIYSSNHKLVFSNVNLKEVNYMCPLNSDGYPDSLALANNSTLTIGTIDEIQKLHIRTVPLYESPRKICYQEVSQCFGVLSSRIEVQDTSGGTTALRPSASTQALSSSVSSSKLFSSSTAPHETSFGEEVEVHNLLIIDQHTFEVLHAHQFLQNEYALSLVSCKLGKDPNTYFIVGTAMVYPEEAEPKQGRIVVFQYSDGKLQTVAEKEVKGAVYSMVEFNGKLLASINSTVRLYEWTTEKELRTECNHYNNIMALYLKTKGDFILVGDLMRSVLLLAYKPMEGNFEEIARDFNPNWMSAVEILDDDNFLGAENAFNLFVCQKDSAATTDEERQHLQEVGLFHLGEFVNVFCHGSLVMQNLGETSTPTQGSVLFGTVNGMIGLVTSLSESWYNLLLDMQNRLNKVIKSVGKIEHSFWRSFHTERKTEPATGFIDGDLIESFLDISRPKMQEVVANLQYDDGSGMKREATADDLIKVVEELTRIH

B1: DDB1- and CUL4A-associated factor 1 (DCAF1), C-terminal region including the WD40 domain (residues 1046-1396) (domain or fragment)
chain: not shown
In the case of B1, the binding result in assay [1] is recorded as “binds”.

B2: HIV-1 (NL4-3 clone) Vpr with H78C mutation (natural protein, UniProt P12520 1-96, looked up)
chain: MEQAPEDQGPQREPYNEWTLELLEELKSEAVRHFPRIWLHNLGQHIYETYGDTWAGVEAIIRILQQLLFIHFRIGCRCSRIGVTRQRRARNGASRS
Regarding B2, the binding result in assay [2] is recorded as “binds”.
